Tests used:
Test in all cases: SPR
[1] = target: T1, recombinant human sclerostin (human, UniProt Q9BQB4 24-213)
T1 construct: biotinylated in the ELISAs; also called hu sclerostin; hu scl
T1 sequence: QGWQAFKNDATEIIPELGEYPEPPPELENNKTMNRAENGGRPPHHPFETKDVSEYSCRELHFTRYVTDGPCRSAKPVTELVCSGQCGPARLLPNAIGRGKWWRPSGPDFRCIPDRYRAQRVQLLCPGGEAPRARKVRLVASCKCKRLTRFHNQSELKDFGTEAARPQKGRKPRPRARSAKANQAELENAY
Procedure: (§1) The binding of antibodies or anti-sclerostin-TNF DVD to purified recombinant human, cynomolgus monkey (cyno), rat and mouse sclerostin and TNFα was determined by surface plasmon resonance-based measurements with a Biacore T100 or T200 instruments (GE Healthcare Life Sciences, Piscataway, N.J., USA) using running HBS-EP+ (10 mM HEPES [pH 7.4], 150 mM NaCl, 3 mM EDTA, and 0.005% surfactant P20) containing additional 150 mM NaCl, and/or 10 mg/ml carboxymethyl dextran, 0.1 mg/ml BSA at 25° C. All chemicals were obtained from GE Healthcare Life Sciences, Piscataway, N.J., USA or otherwise from a different source as described in the text. Approximately 10,000 RU (or 3000 RU when CM3 chip was used) of goat anti-mouse or anti-human IgG (Fcγ) fragment specific polyclonal antibody (Pierce Biotechnology Inc, Rockford, Ill.) diluted in 10 mM sodium acetate (pH 4.5) was directly immobilized across a CM5 (or CM3) research grade biosensor chip using a standard amine coupling kit according to manufacturer's instructions and procedures at 15 μg/ml. Unreacted moieties on the biosensor surface were blocked with ethanolamine. Modified carboxymethyl dextran surface in flowcells 2, 3 and 4 were used as a reaction surface. Modified carboxymethyl dextran in flow cell 1 was used as the reference surface. Biaevaluation T100 software version 2.0.2, GE Healthcare Life Sciences was used to simultaneously fit association and dissociation phases of all injections (using 1:1 fit analysis with local Rmax). Purified antibodies were diluted in running buffer for capture across goat anti-mouse or anti-human IgG specific reaction surfaces. Antibodies to be captured as a ligand (1 μg/ml) were injected over reaction matrices at a flow rate of 10 μl/minute. The association and dissociation rate constants, kon (unit M-1 s-1) and koff (unit s-1) were determined under a continuous flow rate of 50 μl/minute. […] At the end of each cycle the surfaces were regenerated with 10 s injection of 50 mM NaOH or/and by 10 s injection of 10 mM Glycine pH1.5 at a flow rate of 100 μl/min.

[2] = target: T2, recombinant cynomolgus monkey sclerostin (cynomolgus monkey)
T2 construct: also called cyno sclerostin; Cyno sclerostin
Procedure: as §1

[3] = target: T3, recombinant mouse sclerostin (mouse, UniProt Q99P68 24-211)
T3 construct: also called ms sclerostin; murine sclerostin
T3 sequence (looked up): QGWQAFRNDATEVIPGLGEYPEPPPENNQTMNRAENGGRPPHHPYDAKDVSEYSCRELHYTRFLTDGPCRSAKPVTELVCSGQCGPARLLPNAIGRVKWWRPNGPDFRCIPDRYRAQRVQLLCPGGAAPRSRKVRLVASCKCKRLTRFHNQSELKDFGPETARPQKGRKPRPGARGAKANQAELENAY
Procedure: as §1

[4] = target: T4, recombinant rat sclerostin (rat, UniProt Q99P67 24-213, limits assumed)
T4 sequence (looked up): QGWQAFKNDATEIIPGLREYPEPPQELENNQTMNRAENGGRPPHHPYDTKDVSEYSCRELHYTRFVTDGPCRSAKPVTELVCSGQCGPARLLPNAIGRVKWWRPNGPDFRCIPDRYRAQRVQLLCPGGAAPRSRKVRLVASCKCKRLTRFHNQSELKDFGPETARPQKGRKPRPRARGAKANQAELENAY
Procedure: as §1

B1: AE10-6-AM3 (antibody, V domains shown)
VH: EVQLVQSGAEVKKPGASVKVSCKVSGYTLTELSMHWVRQAPGKGLEWMGGFDPEDGETIYAQKFQGRVTMTEDTSTDTAYMELSSLRSEDTAVYYCATDSAGYWYKFFQHWGQGTLVTVSS
VL: QAVVTQEPSLTVSPGGTVTLTCGSSTGAVTIDHYPYWFQQKPGQAPRTLISDTDDKHSWTPARFSGSLLGGKAALTLSGAQPEDEAEYYCLLDYGGTFVFGGGTKLTVL
notes: converted into IgG
Kd [1]: 0.54 pM
koff [1]: 3.8e-06 s⁻¹
kon [1]: 7e+06 M⁻¹ s⁻¹
Kd [2]: 0.24 pM
koff [2]: 1.6e-06 s⁻¹
kon [2]: 6.9e+06 M⁻¹ s⁻¹
Kd [3]: 5.5 pM
koff [3]: 5.5e-05 s⁻¹
kon [3]: 1e+07 M⁻¹ s⁻¹
Kd [4]: 10 pM
koff [4]: 1.9e-05 s⁻¹
kon [4]: 1.9e+06 M⁻¹ s⁻¹

B2: AE10-6-AM2 (antibody, V domains shown)
VH: EVQLVQSGAEVKKPGASVKVSCKVSGYTLTELSMHWVRQAPGKGLEWMGGFDPEAGETIYAQKFQGRVTMTEDTSTDTAYMELSSLRSEDTAVYYCATDGELYWYKFFQHWGQGTLVTVSS
VL: QAVVTQEPSLTVSPGGTVTLTCGSSTGAVTIWHYPYWFQQKPGQAPRTLISDTNDKHSWTPARFSGSLLGGKAALTLSGAQPEDEAEYYCLLDYGGSFVFGGGTKLTVL
notes: converted into IgG; also called rHC + LC S4 clone 102
Kd [1]: 8.1 pM
koff [1]: 2.7e-05 s⁻¹
kon [1]: 3.4e+06 M⁻¹ s⁻¹
Kd [2]: 7.1 pM
koff [2]: 2.6e-05 s⁻¹
kon [2]: 3.6e+06 M⁻¹ s⁻¹
Kd [3]: 94 pM
koff [3]: 0.002 s⁻¹
kon [3]: 2.1e+07 M⁻¹ s⁻¹
Kd [4]: 120 pM
koff [4]: 0.00088 s⁻¹
kon [4]: 7.6e+06 M⁻¹ s⁻¹

B3: AE10-6-AM5 (antibody, V domains shown)
VH: EVQLVQSGAEVKKPGASVKVSCKVSGYTLSELSMHWVRQAPGKGLEWMGGFDPEGGETIYAQKFQGRVTMTEDTSTDTAYMELSSLRSEDTAVYYCATDAGGYWYKFFQHWGQGTLVTVSS
VL: QAVVTQEPSLTVSPGGTVTLTCGSSTGTVTIDHYPYWFQQKPGQAPRTLISDTDDKHSWTPARFSGSLLGGKAALTLSGAQPEDEAEYYCLLFYGGTVVFGGGTKLTVL
notes: converted into IgG
Kd [1]: 3 pM
koff [1]: 1.3e-05 s⁻¹
kon [1]: 4.3e+06 M⁻¹ s⁻¹
Kd [2]: 1.5 pM
koff [2]: 7.6e-06 s⁻¹
kon [2]: 5.2e+06 M⁻¹ s⁻¹
Kd [3]: 16 pM
koff [3]: 0.00011 s⁻¹
kon [3]: 7e+06 M⁻¹ s⁻¹
Kd [4]: 56 pM
koff [4]: 7.5e-05 s⁻¹
kon [4]: 1.3e+06 M⁻¹ s⁻¹

B4: AE10-6-AM6 (antibody, V domains shown)
VH: EVQLVQSGAEVKKPGASVKVSCKVSGYTLSELSMHWVRQAPGKGLEWMGGFDPEGGETIYAQKFQGRVTMTEDTSTDTAYMELSSLRSEDTAVYYCATDTEGYWEKFFQHWGQGTLVTVSS
VL: QAVVTQEPSLTVSPGGTVTLTCGSSTGAVTIDHYPYWFQQKPGQAPRTLISDTDDKHSWTPARFSGSLLGGKAALTLSGAQPEDEAEYYCLLDYGGTFVFGGGTKLTVL
notes: converted into IgG; also called rHC + LC S4 clone 119
Kd [1]: 1.3 pM
koff [1]: 1.2e-05 s⁻¹
kon [1]: 9.1e+06 M⁻¹ s⁻¹
Kd [2]: 0.88 pM
koff [2]: 7e-06 s⁻¹
kon [2]: 7.9e+06 M⁻¹ s⁻¹
Kd [3]: 27 pM
koff [3]: 0.00087 s⁻¹
kon [3]: 3.2e+07 M⁻¹ s⁻¹
Kd [4]: 98 pM
koff [4]: 0.00018 s⁻¹
kon [4]: 1.9e+06 M⁻¹ s⁻¹

B5: AE10-6-AM7 (antibody, V domains shown)
VH: EVQLVQSGAEVKKPGASVKVSCKVSGYTLTELSMHWVRQAPGKGLEWMGGFDPEDGETIYAQKFQGRVTMTEDTSTDTAYMELSSLRSEDTAVYYCATDTVGYWEKFFQHWGQGTLVTVSS
VL: QAVVTQEPSLTVSPGGTVTLTCGSSTGTVTIDHYPYWFQQKPGQAPRTLISDTDDKHSWTPARFSGSLLGGKAALTLSGAQPEDEAEYYCLLDYGGRFVFGGGTKLTVL
notes: converted into IgG; also called rHC + LC S4 clone 131
Kd [1]: 0.3 pM
koff [1]: 2.1e-06 s⁻¹
kon [1]: 7.1e+06 M⁻¹ s⁻¹
Kd [2]: < 0.14 pM
koff [2]: < 1e-07 s⁻¹
kon [2]: 7e+06 M⁻¹ s⁻¹
Kd [3]: 9.3 pM
koff [3]: 0.00012 s⁻¹
kon [3]: 1.3e+07 M⁻¹ s⁻¹
Kd [4]: 26 pM
koff [4]: 4.6e-05 s⁻¹
kon [4]: 1.8e+06 M⁻¹ s⁻¹

B6: DVD2658 (bispecific antibody, human IgG1, kappa, L234A L235A)
heavy: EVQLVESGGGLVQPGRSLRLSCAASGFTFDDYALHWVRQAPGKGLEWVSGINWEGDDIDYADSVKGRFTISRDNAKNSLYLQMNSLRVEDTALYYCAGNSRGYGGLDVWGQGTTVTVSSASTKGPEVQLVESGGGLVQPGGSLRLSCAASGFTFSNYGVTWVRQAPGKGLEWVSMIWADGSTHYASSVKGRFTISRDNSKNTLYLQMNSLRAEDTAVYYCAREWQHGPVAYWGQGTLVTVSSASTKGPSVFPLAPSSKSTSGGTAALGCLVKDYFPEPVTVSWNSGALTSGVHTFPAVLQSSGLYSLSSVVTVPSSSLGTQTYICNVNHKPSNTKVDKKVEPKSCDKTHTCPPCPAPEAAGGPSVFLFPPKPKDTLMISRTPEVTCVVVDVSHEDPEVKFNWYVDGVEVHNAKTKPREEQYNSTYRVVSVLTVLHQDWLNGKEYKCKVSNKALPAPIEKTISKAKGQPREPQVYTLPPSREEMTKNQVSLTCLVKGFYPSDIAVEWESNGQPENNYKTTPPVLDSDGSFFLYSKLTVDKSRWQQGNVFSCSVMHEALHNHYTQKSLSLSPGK
light: QSVLTQPPSASGTPGQRVTISCSGSSSNIGRNTVNWYQQLPGTAPKLLIYSNNQRPSGVPDRFSGSKSGTSASLAISGLQSEDEADYYCAAWDDNLESYVFGGGTKLTVLGQPKAAPDIQMTQSPSSLSASVGDRVTITCRASQLVSSAVAWYQQKPGKAPKLLIYWASARHTGVPSRFSGSGSGTDFTLTISSLQPEDFATYYCQQHYKTPFTFGQGTKLEIKRTVAAPSVFIFPPSDEQLKSGTASVVCLLNNFYPREAKVQWKVDNALQSGNSQESVTEQDSKDSTYSLSSTLTLSKADYEKHKVYACEVTHQGLSSPVTKSFNRGEC
notes: DVD-Ig: outer MSL10-AM1.2, inner AB436
Kd [1]: < 3.7 pM
koff [1]: < 1e-06 s⁻¹
kon [1]: 270000 M⁻¹ s⁻¹
Kd [2]: 61 pM
koff [2]: 3e-05 s⁻¹
kon [2]: 500000 M⁻¹ s⁻¹

B7: DVD2657 (bispecific antibody, human IgG1, kappa, L234A L235A)
heavy: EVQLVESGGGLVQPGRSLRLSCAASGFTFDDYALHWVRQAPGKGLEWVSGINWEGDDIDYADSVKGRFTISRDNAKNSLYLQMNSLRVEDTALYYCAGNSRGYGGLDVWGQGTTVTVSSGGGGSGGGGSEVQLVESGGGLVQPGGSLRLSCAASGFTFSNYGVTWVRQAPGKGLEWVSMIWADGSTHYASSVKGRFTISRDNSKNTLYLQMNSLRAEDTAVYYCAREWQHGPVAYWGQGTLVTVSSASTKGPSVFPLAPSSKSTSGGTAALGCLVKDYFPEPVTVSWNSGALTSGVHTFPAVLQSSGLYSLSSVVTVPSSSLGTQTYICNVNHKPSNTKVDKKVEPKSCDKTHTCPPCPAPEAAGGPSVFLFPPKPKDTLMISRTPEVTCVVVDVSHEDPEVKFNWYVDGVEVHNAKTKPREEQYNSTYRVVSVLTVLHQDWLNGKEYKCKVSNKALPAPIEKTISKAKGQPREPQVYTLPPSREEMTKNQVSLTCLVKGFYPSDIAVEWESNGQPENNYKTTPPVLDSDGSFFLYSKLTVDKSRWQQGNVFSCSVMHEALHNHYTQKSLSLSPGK
light: QSVLTQPPSASGTPGQRVTISCSGSSSNIGRNTVNWYQQLPGTAPKLLIYSNNQRPSGVPDRFSGSKSGTSASLAISGLQSEDEADYYCAAWDDNLESYVFGGGTKLTVLGGGSGGGGSGDIQMTQSPSSLSASVGDRVTITCRASQLVSSAVAWYQQKPGKAPKLLIYWASARHTGVPSRFSGSGSGTDFTLTISSLQPEDFATYYCQQHYKTPFTFGQGTKLEIKRTVAAPSVFIFPPSDEQLKSGTASVVCLLNNFYPREAKVQWKVDNALQSGNSQESVTEQDSKDSTYSLSSTLTLSKADYEKHKVYACEVTHQGLSSPVTKSFNRGEC
notes: as for B6
Kd [1]: 17 pM
koff [1]: 4.9e-06 s⁻¹
kon [1]: 280000 M⁻¹ s⁻¹
Kd [2]: 130 pM
koff [2]: 5e-05 s⁻¹
kon [2]: 390000 M⁻¹ s⁻¹

B8: MAK195-21-SS-AE10-6 AM7 (bispecific antibody, human IgG1, lambda, L234A L235A)
heavy: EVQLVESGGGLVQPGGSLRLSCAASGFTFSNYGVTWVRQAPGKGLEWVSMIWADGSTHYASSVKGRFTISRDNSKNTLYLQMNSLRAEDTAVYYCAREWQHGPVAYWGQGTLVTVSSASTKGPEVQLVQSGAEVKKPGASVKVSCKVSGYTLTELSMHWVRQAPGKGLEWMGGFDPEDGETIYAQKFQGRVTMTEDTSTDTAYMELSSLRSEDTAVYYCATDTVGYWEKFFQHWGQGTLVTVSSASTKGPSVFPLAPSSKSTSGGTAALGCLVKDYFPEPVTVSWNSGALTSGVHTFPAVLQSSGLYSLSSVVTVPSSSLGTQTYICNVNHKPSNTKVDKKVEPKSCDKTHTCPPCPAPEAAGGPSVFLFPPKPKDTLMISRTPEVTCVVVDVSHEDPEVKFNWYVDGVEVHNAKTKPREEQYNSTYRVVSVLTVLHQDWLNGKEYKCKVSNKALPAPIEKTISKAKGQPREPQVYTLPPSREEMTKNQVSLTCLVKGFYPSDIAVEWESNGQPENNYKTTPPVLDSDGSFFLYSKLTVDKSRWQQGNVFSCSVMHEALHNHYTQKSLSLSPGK
light: DIQMTQSPSSLSASVGDRVTITCRASQLVSSAVAWYQQKPGKAPKLLIYWASARHTGVPSRFSGSGSGTDFTLTISSLQPEDFATYYCQQHYKTPFTFGQGTKLEIKRTVAAPQAVVTQEPSLTVSPGGTVTLTCGSSTGTVTIDHYPYWFQQKPGQAPRTLISDTDDKHSWTPARFSGSLLGGKAALTLSGAQPEDEAEYYCLLDYGGRFVFGGGTKLTVLGQPKAAPSVTLFPPSSEELQANKATLVCLISDFYPGAVTVAWKADSSPVKAGVETTTPSKQSNNKYAASSYLSLTPEQWKSHRSYSCQVTHEGSTVEKTVAPTECS
notes: DVD-Ig: outer MAK195-21, inner AE10-6 AM7
Kd [1]: < 1.5 pM
koff [1]: < 1e-06 s⁻¹
kon [1]: 680000 M⁻¹ s⁻¹

B9: MAK195-21-GS-AE10-6 AM3 (bispecific antibody, human IgG1, lambda, L234A L235A)
heavy: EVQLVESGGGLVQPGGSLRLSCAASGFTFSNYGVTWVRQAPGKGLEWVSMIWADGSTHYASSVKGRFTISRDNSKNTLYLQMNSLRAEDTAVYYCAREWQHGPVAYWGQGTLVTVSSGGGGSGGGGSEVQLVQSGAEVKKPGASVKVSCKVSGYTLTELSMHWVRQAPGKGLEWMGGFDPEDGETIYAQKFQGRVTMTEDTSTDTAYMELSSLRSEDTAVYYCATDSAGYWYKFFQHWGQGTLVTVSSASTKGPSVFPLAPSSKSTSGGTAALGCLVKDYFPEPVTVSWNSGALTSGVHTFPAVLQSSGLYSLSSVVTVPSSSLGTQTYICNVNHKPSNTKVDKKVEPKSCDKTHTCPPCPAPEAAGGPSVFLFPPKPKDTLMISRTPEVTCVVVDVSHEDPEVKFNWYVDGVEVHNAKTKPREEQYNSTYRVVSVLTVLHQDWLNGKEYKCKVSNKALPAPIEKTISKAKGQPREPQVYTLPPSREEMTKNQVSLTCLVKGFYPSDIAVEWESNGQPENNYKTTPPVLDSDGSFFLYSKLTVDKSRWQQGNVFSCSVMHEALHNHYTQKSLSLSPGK
light: DIQMTQSPSSLSASVGDRVTITCRASQLVSSAVAWYQQKPGKAPKLLIYWASARHTGVPSRFSGSGSGTDFTLTISSLQPEDFATYYCQQHYKTPFTFGQGTKLEIKGGSGGGGSGQAVVTQEPSLTVSPGGTVTLTCGSSTGAVTIDHYPYWFQQKPGQAPRTLISDTDDKHSWTPARFSGSLLGGKAALTLSGAQPEDEAEYYCLLDYGGTFVFGGGTKLTVLGQPKAAPSVTLFPPSSEELQANKATLVCLISDFYPGAVTVAWKADSSPVKAGVETTTPSKQSNNKYAASSYLSLTPEQWKSHRSYSCQVTHEGSTVEKTVAPTECS
notes: DVD-Ig: outer MAK195-21, inner AE10-6 AM3; heavy chain row is printed MAK195-1-GS-AE10-6 AM3; also called MAK195-1-GS-AE10-6 AM3
Kd [1]: 8.2 pM
koff [1]: 1.7e-05 s⁻¹
kon [1]: 2.1e+06 M⁻¹ s⁻¹

B10: MAK195-21-GS-AE10-6 AM7 (bispecific antibody, human IgG1, lambda, L234A L235A)
heavy: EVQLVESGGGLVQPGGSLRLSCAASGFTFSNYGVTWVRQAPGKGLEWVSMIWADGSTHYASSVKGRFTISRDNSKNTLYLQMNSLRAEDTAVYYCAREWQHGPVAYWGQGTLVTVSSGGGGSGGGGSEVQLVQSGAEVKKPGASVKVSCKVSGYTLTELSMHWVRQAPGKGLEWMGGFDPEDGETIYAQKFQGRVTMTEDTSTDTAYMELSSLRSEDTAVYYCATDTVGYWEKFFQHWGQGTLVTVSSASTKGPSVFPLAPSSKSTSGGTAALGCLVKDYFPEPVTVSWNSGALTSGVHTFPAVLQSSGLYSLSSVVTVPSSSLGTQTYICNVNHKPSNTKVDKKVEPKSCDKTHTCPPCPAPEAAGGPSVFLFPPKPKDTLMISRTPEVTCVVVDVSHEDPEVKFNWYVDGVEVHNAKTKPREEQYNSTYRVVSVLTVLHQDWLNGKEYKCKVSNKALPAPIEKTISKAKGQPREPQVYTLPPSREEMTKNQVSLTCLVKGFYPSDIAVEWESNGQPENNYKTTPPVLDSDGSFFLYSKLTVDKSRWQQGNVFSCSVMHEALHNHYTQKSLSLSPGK
light: DIQMTQSPSSLSASVGDRVTITCRASQLVSSAVAWYQQKPGKAPKLLIYWASARHTGVPSRFSGSGSGTDFTLTISSLQPEDFATYYCQQHYKTPFTFGQGTKLEIKGGSGGGGSGQAVVTQEPSLTVSPGGTVTLTCGSSTGTVTIDHYPYWFQQKPGQAPRTLISDTDDKHSWTPARFSGSLLGGKAALTLSGAQPEDEAEYYCLLDYGGRFVFGGGTKLTVLGQPKAAPSVTLFPPSSEELQANKATLVCLISDFYPGAVTVAWKADSSPVKAGVETTTPSKQSNNKYAASSYLSLTPEQWKSHRSYSCQVTHEGSTVEKTVAPTECS
notes: as for B8
Kd [1]: 10 pM
koff [1]: 2e-05 s⁻¹
kon [1]: 2e+06 M⁻¹ s⁻¹

B11: MAK195-21-GS-AE10-6 AM8 (bispecific antibody, human IgG1, lambda, L234A L235A)
heavy: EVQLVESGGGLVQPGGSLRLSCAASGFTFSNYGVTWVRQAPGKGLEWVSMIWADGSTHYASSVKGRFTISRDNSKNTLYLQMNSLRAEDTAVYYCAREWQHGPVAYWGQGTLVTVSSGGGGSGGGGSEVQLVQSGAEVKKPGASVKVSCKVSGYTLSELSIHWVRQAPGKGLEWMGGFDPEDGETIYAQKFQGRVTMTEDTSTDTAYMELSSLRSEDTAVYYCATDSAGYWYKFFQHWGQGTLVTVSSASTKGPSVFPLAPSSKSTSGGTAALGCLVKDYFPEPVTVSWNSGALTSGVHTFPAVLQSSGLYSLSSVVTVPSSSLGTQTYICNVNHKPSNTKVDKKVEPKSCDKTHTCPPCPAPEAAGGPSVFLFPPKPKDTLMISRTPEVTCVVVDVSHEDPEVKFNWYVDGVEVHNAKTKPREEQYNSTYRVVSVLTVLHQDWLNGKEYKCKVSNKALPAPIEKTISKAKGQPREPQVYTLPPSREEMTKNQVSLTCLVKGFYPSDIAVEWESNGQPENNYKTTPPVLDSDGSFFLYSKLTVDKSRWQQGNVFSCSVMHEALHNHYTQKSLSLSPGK
light: DIQMTQSPSSLSASVGDRVTITCRASQLVSSAVAWYQQKPGKAPKLLIYWASARHTGVPSRFSGSGSGTDFTLTISSLQPEDFATYYCQQHYKTPFTFGQGTKLEIKGGSGGGGSGQAVVTQEPSLTVSPGGTVTLTCGSSTGAVTIDHYPYWFQQKPGQAPRTLISDTDDKHSWTPARFSGSLLGGKAALTLSGAQPEDEAEYYCLLDYGGSFVFGGGTKLTVLGQPKAAPSVTLFPPSSEELQANKATLVCLISDFYPGAVTVAWKADSSPVKAGVETTTPSKQSNNKYAASSYLSLTPEQWKSHRSYSCQVTHEGSTVEKTVAPTECS
notes: DVD-Ig: outer MAK195-21, inner AE10-6 AM8
Kd [1]: 3.6 pM
koff [1]: 7.9e-06 s⁻¹
kon [1]: 2.2e+06 M⁻¹ s⁻¹
